# Experimental data: US20180230213A1 (AVEO PHARMACEUTICALS, published 2018)
# Positions count from the first letter of the chain named. Numbers in names are those of the source.
# T1: monomeric recombinant human Notch3 extracellular domain (containing EGF like domains 1-11) fusion protein (human, UniProt Q9UM47 40-467)
# T1 construct: domain: EGF like domains 1-11; also called monomeric rhNotch3
# T1 sequence (looked up): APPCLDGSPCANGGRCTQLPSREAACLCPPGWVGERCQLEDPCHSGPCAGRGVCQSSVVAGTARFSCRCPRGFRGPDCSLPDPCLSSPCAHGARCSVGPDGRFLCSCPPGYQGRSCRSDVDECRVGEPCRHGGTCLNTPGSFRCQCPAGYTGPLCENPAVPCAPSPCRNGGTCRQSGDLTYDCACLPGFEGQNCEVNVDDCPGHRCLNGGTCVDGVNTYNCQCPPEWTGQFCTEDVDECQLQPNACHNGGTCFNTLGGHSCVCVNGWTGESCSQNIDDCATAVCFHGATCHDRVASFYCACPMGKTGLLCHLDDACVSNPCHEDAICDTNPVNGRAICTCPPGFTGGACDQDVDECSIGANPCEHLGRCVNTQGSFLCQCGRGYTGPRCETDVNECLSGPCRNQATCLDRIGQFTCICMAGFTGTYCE
# B1: Hu4F11-70 (antibody, human IgG1, kappa, V domains shown)
# VH: EVQLLESGGGLVQPGGSLRLSCAASGFTFSHYDMSWVRQAPGKGLEWVSYISRGGGSTYYPDSVKGRFTISRDNSKNTLYLQMNSLRAEDTAVYYCGRHATTAYWYFDVWGQGTMVTVSS
# VL: DVVMTQTPLSLSVTPGQPASISCRSSQSLVHTHGNTYLHWYLQKPGQSPQLLIYKVSNRFSGVPDRFSGSGSGTDFTLKISRVEAEDVGVYFCSQSTHVPWTFGQGTKVEIKR
# notes: Humanized, human IgG1 kappa; Hv3-23 A28T S31H T62S heavy + Kv2D-29 N28H kappa
# B2: Hu4F11-73 (antibody, human IgG1, kappa, V domains shown)
# VH: B1 VH with H31N
# VL: B1 VL with H33Y
# notes: Humanized, human IgG1 kappa; Hv3-23 A28T S31N T62S heavy + Kv2D-29 N28Y kappa
# B3: Hu4F11-75 (antibody, human IgG1, kappa, V domains shown)
# VH: B1 VH with H31S
# VL: B1 VL with H33Y
# notes: Humanized, human IgG1 kappa; Hv3-23 A28T T62S heavy + Kv2D-29 N28Y kappa
# B4: Hu4F11-72 (antibody, human IgG1, kappa, V domains shown)
# VH: B1 VH with T28A
# VL: B1 VL
# notes: Humanized, human IgG1 kappa; Hv3-23 S31H T62S heavy + Kv2D-29 N28H kappa
# B5: Hu4F11-32 (antibody, human IgG1, kappa, V domains shown)
# VH: B1 VH with T28A, H31S, S63T
# VL: B1 VL with H33N
# notes: Humanized, human IgG1 kappa; Sh4F11 Hv3-23 heavy + Hu4F11 Kv2D-29 kappa
# B6: Hu4F11-79 (antibody, human IgG1, kappa, V domains shown)
# VH: B1 VH with H31S
# VL: B1 VL with H33Q
# notes: Humanized, human IgG1 kappa; Hv3-23 A28T T62S heavy + Kv2D-29 N28Q kappa
# B7: Hu4F11-80 (antibody, human IgG1, kappa, V domains shown)
# VH: B1 VH with T28A
# VL: B1 VL with H33Q
# notes: Humanized, human IgG1 kappa; Hv3-23 S31H T62S heavy + Kv2D-29 N28Q kappa
# B8: Hu4F11-69 (antibody, human IgG1, kappa, V domains shown)
# VH: B1 VH with H31N
# VL: B1 VL
# notes: Humanized, human IgG1 kappa; Hv3-23 A28T S31N T62S heavy + Kv2D-29 N28H kappa
# B9: Hu4F11-74 (antibody, human IgG1, kappa, V domains shown)
# VH: B1 VH
# VL: B1 VL with H33Y
# notes: Humanized, human IgG1 kappa; Hv3-23 A28T S31H T62S heavy + Kv2D-29 N28Y kappa
# B10: Hu4F11-78 (antibody, human IgG1, kappa, V domains shown)
# VH: B1 VH
# VL: B1 VL with H33Q
# notes: Humanized, human IgG1 kappa; Hv3-23 A28T S31H T62S heavy + Kv2D-29 N28Q kappa
# B11: Hu4F11-71 (antibody, human IgG1, kappa, V domains shown)
# VH: B1 VH with H31S
# VL: B1 VL
# notes: Humanized, human IgG1 kappa; Hv3-23 A28T T62S heavy + Kv2D-29 N28H kappa
# B12: Hu4F11-77 (antibody, human IgG1, kappa, V domains shown)
# VH: B1 VH with H31N
# VL: B1 VL with H33Q
# notes: Humanized, human IgG1 kappa; Hv3-23 A28T S31N T62S heavy + Kv2D-29 N28Q kappa
# B13: Hu4F11-76 (antibody, human IgG1, kappa, V domains shown)
# VH: B1 VH with T28A
# VL: B1 VL with H33Y
# notes: Humanized, human IgG1 kappa; Hv3-23 S31H T62S heavy + Kv2D-29 N28Y kappa
# Biological target: T1, monomeric recombinant human Notch3 …
# Assay: SPR BIAcore T100, antibody captured by anti-human IgG Fc, monomeric rhNotch3 analyte, 37 C
# Description: (§1) The binding affinities and kinetics of binding of chimeric and humanized antibodies to monomeric recombinant human Notch3 extracellular domain (containing EGF like domains 1-11) fusion protein (monomeric rhNotch3) and monomeric recombinant cynomologus monkey Notch3 extracellular domain (containing EGF like domains 1-12) fusion protein (monomeric rcNotch3) were measured by surface plasmon resonance, using a BIAcore® T100 instrument (GE Healthcare, Piscataway, N.J.).
# (§2) Goat anti-human IgGs (Fc fragment specific, Jackson ImmunoResearch, West Grove, Pa.) were immobilized on carboxymethylated dextran CM4 sensor chips by amine coupling, according to a standard protocol. Analyses were performed at 25 and 37° C. using PBS containing 0.05% surfactant P20 as running buffer. The antibodies were captured in individual flow cells at a flow rate of 10 μL/minute. Injection time was varied for each antibody to yield an Rmax between 30 and 60 RU. Buffer or Notch3 protein diluted in running buffer was injected sequentially over a reference surface (no antibody captured) and the active surface (antibody to be tested) for 240 seconds at 60 μL/minute. The dissociation phase was monitored for up to 900 seconds. The surface was then regenerated with two 60-second injections of 10 mM Glycine-HCl, pH 2.25, at a flow rate of 30 μL/minute. The Notch3 concentration range tested was 50 nM to 6.25 nM.
Kd,koff,kon,Binder
3 nM,0.0028 s⁻¹,940000 M⁻¹ s⁻¹,B1
5.9 nM,0.0013 s⁻¹,210000 M⁻¹ s⁻¹,B2
3.4 nM,0.009 s⁻¹,2.7e+06 M⁻¹ s⁻¹,B3
5.2 nM,0.00094 s⁻¹,180000 M⁻¹ s⁻¹,B4
2.7 nM,0.0046 s⁻¹,1.7e+06 M⁻¹ s⁻¹,B5
3.2 nM,0.006 s⁻¹,1.8e+06 M⁻¹ s⁻¹,B6
3.8 nM,0.0041 s⁻¹,1.1e+06 M⁻¹ s⁻¹,B7
2.9 nM,0.0038 s⁻¹,1.3e+06 M⁻¹ s⁻¹,B8
3.9 nM,0.0022 s⁻¹,560000 M⁻¹ s⁻¹,B9
3.8 nM,0.0055 s⁻¹,1.5e+06 M⁻¹ s⁻¹,B10
3 nM,0.0037 s⁻¹,1.2e+06 M⁻¹ s⁻¹,B11
3.3 nM,0.0073 s⁻¹,2.2e+06 M⁻¹ s⁻¹,B12
3.3 nM,0.0055 s⁻¹,1.7e+06 M⁻¹ s⁻¹,B13

# Biological target: T2, monomeric recombinant cynomologus monkey Notch3 extracellular domain (containing EGF like domains 1-12) … (cynomologus monkey)
# T2 construct: domain: EGF like domains 1-12; also called monomeric rcNotch3
# Assay: SPR BIAcore T100, antibody captured by anti-human IgG Fc, monomeric rcNotch3 analyte, 37 C
# Description: as §1, §2
Kd,koff,kon,Binder
9.1 nM,0.0029 s⁻¹,370000 M⁻¹ s⁻¹,B1
15 nM,0.0063 s⁻¹,500000 M⁻¹ s⁻¹,B2
24 nM,0.0089 s⁻¹,380000 M⁻¹ s⁻¹,B3
9.8 nM,0.0032 s⁻¹,440000 M⁻¹ s⁻¹,B4
32 nM,0.016 s⁻¹,500000 M⁻¹ s⁻¹,B5
23 nM,0.021 s⁻¹,980000 M⁻¹ s⁻¹,B6
12 nM,0.01 s⁻¹,910000 M⁻¹ s⁻¹,B7
11 nM,0.0038 s⁻¹,400000 M⁻¹ s⁻¹,B8
12 nM,0.0045 s⁻¹,440000 M⁻¹ s⁻¹,B9
11 nM,0.007 s⁻¹,660000 M⁻¹ s⁻¹,B10
14 nM,0.0056 s⁻¹,410000 M⁻¹ s⁻¹,B11
12 nM,0.01 s⁻¹,910000 M⁻¹ s⁻¹,B12
12 nM,0.0062 s⁻¹,540000 M⁻¹ s⁻¹,B13

# Biological target: T2, monomeric recombinant cynomologus …
# Assay: SPR BIAcore T100, antibody captured by anti-human IgG Fc, monomeric rcNotch3 analyte, 25 C
# Description: as §1, §2
# Kinetic parameters were determined using the kinetic function of the BIAevaluation software (GE Healthcare) with double reference subtraction. Kinetic parameters for each antibody, kₐ (association rate constant), kd (dissociation rate constant), and KD (equilibrium dissociation constant) were determined.
Kd,koff,kon,Binder
5.2 nM,0.001 s⁻¹,200000 M⁻¹ s⁻¹,B1
2.6 nM,0.0019 s⁻¹,760000 M⁻¹ s⁻¹,B2
3.7 nM,0.0026 s⁻¹,720000 M⁻¹ s⁻¹,B3
1.6 nM,0.0045 s⁻¹,2.8e+06 M⁻¹ s⁻¹,B4
18 nM,0.0075 s⁻¹,790000 M⁻¹ s⁻¹,B5
3.4 nM,0.0046 s⁻¹,1.3e+06 M⁻¹ s⁻¹,B6
4 nM,0.0032 s⁻¹,820000 M⁻¹ s⁻¹,B7
7.7 nM,0.00094 s⁻¹,120000 M⁻¹ s⁻¹,B8
2.8 nM,0.0025 s⁻¹,900000 M⁻¹ s⁻¹,B9
2.2 nM,0.0038 s⁻¹,1.8e+06 M⁻¹ s⁻¹,B10
2.7 nM,0.004 s⁻¹,1.5e+06 M⁻¹ s⁻¹,B11
2.6 nM,0.0025 s⁻¹,960000 M⁻¹ s⁻¹,B12
2.5 nM,0.0019 s⁻¹,780000 M⁻¹ s⁻¹,B13

# Biological target: T1, monomeric recombinant human Notch3 …
# Assay: SPR BIAcore T100, monomeric rhNotch3 analyte, 37 C, average of Table 16 and additional measurements
# Description: as §2
Kd,koff,kon,Binder
7.5 nM,0.0039 s⁻¹,690000 M⁻¹ s⁻¹,B1
11 nM,0.0046 s⁻¹,490000 M⁻¹ s⁻¹,B2
10 nM,0.013 s⁻¹,1.7e+06 M⁻¹ s⁻¹,B3
7 nM,0.0069 s⁻¹,710000 M⁻¹ s⁻¹,B4
7.6 nM,0.084 s⁻¹,7.4e+06 M⁻¹ s⁻¹,B5
16 nM,0.0091 s⁻¹,900000 M⁻¹ s⁻¹,B6
14 nM,0.0056 s⁻¹,590000 M⁻¹ s⁻¹,B7
8.5 nM,0.0037 s⁻¹,710000 M⁻¹ s⁻¹,B8
10 nM,0.0051 s⁻¹,490000 M⁻¹ s⁻¹,B9
9 nM,0.006 s⁻¹,820000 M⁻¹ s⁻¹,B10
9.2 nM,0.0095 s⁻¹,1.1e+06 M⁻¹ s⁻¹,B11
8.6 nM,0.0074 s⁻¹,1.2e+06 M⁻¹ s⁻¹,B12
8.2 nM,0.0064 s⁻¹,980000 M⁻¹ s⁻¹,B13
